Data on 1 molecule can be found in US20260250421A1 (BIOCYTOGEN PHARMACEUTICALS BEIJING, published 2026).

Assay [1] concerns the target T1, dog PTK7 on dog cancer cell lines (dog, UniProt A0A8I3N574 31-1070).
T1 construct: whole, on cells; Endogenous protein on dog tumour cell lines; also called PTK7 on CMT-U27 and D-17 cells; dog cancer cells
T1 sequence: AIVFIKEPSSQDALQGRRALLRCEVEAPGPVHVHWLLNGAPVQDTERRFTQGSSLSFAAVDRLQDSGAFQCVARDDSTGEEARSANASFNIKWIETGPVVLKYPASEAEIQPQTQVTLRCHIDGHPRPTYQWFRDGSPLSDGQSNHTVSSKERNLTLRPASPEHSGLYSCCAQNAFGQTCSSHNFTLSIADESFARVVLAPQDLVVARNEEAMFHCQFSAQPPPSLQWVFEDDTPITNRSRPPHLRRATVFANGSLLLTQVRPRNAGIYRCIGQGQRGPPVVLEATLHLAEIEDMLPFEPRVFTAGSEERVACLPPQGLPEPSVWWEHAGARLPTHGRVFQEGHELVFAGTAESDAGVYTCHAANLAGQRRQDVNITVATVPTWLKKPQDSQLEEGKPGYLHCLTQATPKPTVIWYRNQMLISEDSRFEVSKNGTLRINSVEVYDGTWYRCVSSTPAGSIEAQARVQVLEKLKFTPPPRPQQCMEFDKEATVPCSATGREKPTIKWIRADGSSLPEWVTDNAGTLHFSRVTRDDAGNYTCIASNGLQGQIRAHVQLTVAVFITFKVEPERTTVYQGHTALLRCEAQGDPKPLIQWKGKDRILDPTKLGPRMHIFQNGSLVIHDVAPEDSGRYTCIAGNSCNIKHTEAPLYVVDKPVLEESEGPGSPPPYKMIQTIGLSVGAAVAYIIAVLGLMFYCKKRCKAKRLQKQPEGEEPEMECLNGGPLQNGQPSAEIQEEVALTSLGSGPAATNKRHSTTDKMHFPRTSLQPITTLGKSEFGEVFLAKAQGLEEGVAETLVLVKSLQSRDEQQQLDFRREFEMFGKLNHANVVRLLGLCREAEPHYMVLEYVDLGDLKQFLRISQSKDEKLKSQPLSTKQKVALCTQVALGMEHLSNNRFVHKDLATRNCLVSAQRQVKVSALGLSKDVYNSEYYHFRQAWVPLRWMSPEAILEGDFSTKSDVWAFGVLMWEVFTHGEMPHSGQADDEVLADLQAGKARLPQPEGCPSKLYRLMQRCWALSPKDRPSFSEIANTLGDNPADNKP
The assay can be described thus: flow cytometry on CMT-U27 and D-17 cells. On the procedure:
(§1) The binding activity of anti-PTK7 antibodies to cancer cell lines was verified by flow cytometry. […] Purified anti-PTK7 antibody with a concentration of 5 μg/mL was added to each well and was incubated at 4° C. for 30 minutes. […] The cells were collected, and the mean fluorescence intensity (MFI) was determined. Human IgG1 was used as ISO control.
A general note: Flow cytometry measures light scatter and fluorescence of single cells or particles in a stream.

The target in assay [2] is T2, His-tagged dog PTK7 protein (dog, UniProt Q13308 31-703 (human entry)).
T2 construct: also called dPTK7-His
T2 chain: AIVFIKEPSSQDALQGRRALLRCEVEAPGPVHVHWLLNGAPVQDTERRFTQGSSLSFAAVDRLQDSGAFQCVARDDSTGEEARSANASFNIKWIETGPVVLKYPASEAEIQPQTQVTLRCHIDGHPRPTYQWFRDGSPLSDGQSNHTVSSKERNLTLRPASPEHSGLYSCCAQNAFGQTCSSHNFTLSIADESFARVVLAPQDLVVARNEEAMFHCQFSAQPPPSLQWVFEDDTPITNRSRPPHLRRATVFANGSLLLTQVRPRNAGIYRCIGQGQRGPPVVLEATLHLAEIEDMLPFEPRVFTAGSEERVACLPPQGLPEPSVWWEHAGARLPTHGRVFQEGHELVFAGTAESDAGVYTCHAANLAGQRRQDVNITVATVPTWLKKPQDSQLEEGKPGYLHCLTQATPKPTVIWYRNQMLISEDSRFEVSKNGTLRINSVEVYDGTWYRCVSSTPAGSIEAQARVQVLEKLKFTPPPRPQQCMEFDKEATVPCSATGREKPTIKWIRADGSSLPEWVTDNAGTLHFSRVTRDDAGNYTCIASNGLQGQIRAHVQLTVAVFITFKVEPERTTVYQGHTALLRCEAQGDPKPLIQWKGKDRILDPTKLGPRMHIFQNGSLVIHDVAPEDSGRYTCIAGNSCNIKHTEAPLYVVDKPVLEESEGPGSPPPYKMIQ
The assay is described as follows: SPR Biacore 8K, Ab on Protein A chip. On the procedure: Purified anti-PTK7 antibodies were diluted to 1 μg/mL and then injected into the Biacore™ 8K biosensor at 10 μL/min for about 50 seconds to achieve a desired protein density (e.g., about 50 response units (RU)). The His-tagged PTK7 protein at a concentration of 200 nM or 0 nM was then injected at 30 μL/min for 180 seconds. Dissociation was monitored for 400 seconds. The chip was regenerated after the last injection of each titration with glycine (pH 2.0, 30 μL/min for 30 seconds).
(In SPR one partner is held on a chip, and binding of the other changes the refractive index at the surface.)

Assay [3] concerns the target T1, dog PTK7 on dog cancer cell lines. The assay can be described thus: flow cytometry, D-17 dog cells, Ab 5 ug/mL. On the procedure: as §1
Assay [4] shares this target. The assay can be described thus: flow cytometry, CMT-U27 dog cells, Ab 5 ug/mL. On the procedure: as §1
Assay [5] has as its target T3, TROP2 on NCI-H1975 and NUGC-4 tumor cells (UniProt P09758 27-323, limits assumed).
T3 construct: whole, on cells; species of the lines is not worded there; also called TROP2 on cells
T3 sequence (looked up): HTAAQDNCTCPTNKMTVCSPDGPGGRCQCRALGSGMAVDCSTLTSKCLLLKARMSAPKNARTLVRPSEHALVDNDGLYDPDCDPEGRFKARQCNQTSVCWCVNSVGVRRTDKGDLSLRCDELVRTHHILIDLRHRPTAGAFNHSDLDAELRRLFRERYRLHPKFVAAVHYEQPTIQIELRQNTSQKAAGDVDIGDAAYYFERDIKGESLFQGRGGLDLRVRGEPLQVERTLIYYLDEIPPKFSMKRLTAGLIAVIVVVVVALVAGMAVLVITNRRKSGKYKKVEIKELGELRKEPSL
The assay is described as follows: flow cytometry on NUGC-4 cells (only TROP2 expression), anti-hIgG-Fc Alexa Fluor 647 secondary antibody, MFI [B]. On the procedure:
This experiment was performed to test the binding activities of the anti-PTK7/TROP2 bispecific antibodies to different tumor cell lines. NCI-H1975 cells or NUGC-4 cells were transferred to a 96-well plate at a density of 5×10⁴ cells/well respectively. The sample antibody was added to the 96-well plate, and incubated at 4° C. for 30 min.

B1: hu24 analog (antibody, IgG1, V domains shown)
VH: QVQLVQSGPEVKKPGASVKVSCKASGYTFTDYAVHWVRQAPGKRLEWIGVISTYNDYTYNNQDFKGRVTMTRDTSASTAYMELSRLRSEDTAVYYCARGNSYFYALDYWGQGTSVTVSS
VL: EIVLTQSPATLSLSPGERATLSCRASESVDSYGKSFMHWYQQKPGQAPRLLIYRASNLESGIPARFSGSGSGTDFTLTISSLEPEDFAVYYCQQSNEDPWTFGGGTKLEIK
notes: Humanized IgG1 monoclonal antibody targeting PTK7; also called positive control
Turning to B1, the binding result in assay [1] was “no binding (tested: 5 ug/mL)”; in assay [2], “no binding (tested: 200 nM)”; in assay [5] it was “no binding (tested: about 20 µg/mL)”. Further, the MFI in assay [3] came to 3690; in assay [4] it was 1940.
